Laboratory results from US20060052582.

B1: FLAG Nercc (full-length wild type Nercc1 kinase with FLAG epitope tag) (protein)
chain: MDYKDDDDKMSVLGEYERHCDSINSDFGSESGGCGDSSPGPSASQGPRAGGGAAEQEELHYIPIRVLGRGAFGEATLYRRTEDDSLVVWKEVDLTRLSEKERRDALNEIVILALLQHDNIIAYYNHFMDNTTLLIELEYCNGGNLYDKILRQKDKLFEEEMVVWYLFQIVSAVSCIHKAGILHRDIKTLNIFLTKANLIKLGDYGLAKKLNSEYSMAETLVGTPYYMSPELCQGVKYNFKSDIWAVGCVIFELLTLKRTFDATNPLNLCVKIVQGIRAMEVDSSQYSLELIQMVHSCLDQDPEQRPTADELLDRPLLRKRRREMEEKVTLLNAPTKRPRSSTVTEAPIAVVTSRTSEVYIWGGGKSTPQKLDVIKSGCSARQVCAGNTHFAVVTVEKELYTWVNMQGGTKLHGQLGHGDKASYRQPKHVEKLQGKAIHQVSCGDDFTVCVTDEGQLYAFGSDYYGCMGVDKVAGPEVLEPMQLNFFLSNPVEQVSCGDNHVVVLTRNKEVYSWGCGEYGRLGLDSEEDYYTPQKVDVPKALIIVAVQCGCDGTFLLTQSGKVLACGLNEFNKLGLNQCMSGIINHEAYHEVPYTTSFTLAKQLSFYKIRTIAPGKTHTAAIDERGRLLTFGCNKCGQLGVGNYKKRLGINLLGGPLGGKQVIRVSCGDEFTIAATDDNHIFAWGNGGNGRLAMTPTERPHGSDICTSWPRPIFGSLHHVPDLSCRGWHTILIVEKVLNSKTIRSNSSGLSIGTVFQSSSPGGGGGGGGGEEEDSQQESETPDPSGGFRGTMEADRGMEGLISPTEAMGNSNGASSSCPGWLRKELENAEFIPMPDSPSPLSAAFSESEKDTLPYEELQGLKVASEAPLEHKPQVEASSPRLNPAVTCAGKGTPLTPPACACSSLQVEVERLQGLVLKCLAEQQKLQQENLQIFTQLQKLNKKLEGGQQVGMHSKGTQTAKEEMEMDPKPDLDSDSGCLLGTDSCRPSL
B2: FLAG Nercc (Δ347-732) (protein)
chain: MDYKDDDDKMSVLGEYERHCDSINSDFGSESGGCGDSSPGPSASQGPRAGGGAAEQEELHYIPIRVLGRGAFGEATLYRRTEDDSLVVWKEVDLTRLSEKERRDALNEIVILALLQHDNIIAYYNHFMDNTTLLIELEYCNGGNLYDKILRQKDKLFEEEMVVWYLFQIVSAVSCIHKAGILHRDIKTLNIFLTKANLIKLGDYGLAKKLNSEYSMAETLVGTPYYMSPELCQGVKYNFKSDIWAVGCVIFELLTLKRTFDATNPLNLCVKIVQGIRAMEVDSSQYSLELIQMVHSCLDQDPEQRPTADELLDRPLLRKRRREMEEKVTLLNAPTKRPRSSTVTEAPIAVVTSRTIRSNSSGLSIGTVFQSSSPGGGGGGGGGEEEDSQQESETPDPSGGFRGTMEADRGMEGLISPTEAMGNSNGASSSCPGWLRKELENAEFIPMPDSPSPLSAAFSESEKDTLPYEELQGLKVASEAPLEHKPQVEASSPRLNPAVTCAGKGTPLTPPACACSSLQVEVERLQGLVLKCLAEQQKLQQENLQIFTQLQKLNKKLEGGQQVGMHSKGTQTAKEEMEMDPKPDLDSDSGCLLGTDSCRPSL

Tests used:
[1] = target: GST Nek7, unphosphorylated (bacterial recombinant)
Chain of GST Nek7, unphosphorylated (bacterial recombinant) (chain, as listed by the source): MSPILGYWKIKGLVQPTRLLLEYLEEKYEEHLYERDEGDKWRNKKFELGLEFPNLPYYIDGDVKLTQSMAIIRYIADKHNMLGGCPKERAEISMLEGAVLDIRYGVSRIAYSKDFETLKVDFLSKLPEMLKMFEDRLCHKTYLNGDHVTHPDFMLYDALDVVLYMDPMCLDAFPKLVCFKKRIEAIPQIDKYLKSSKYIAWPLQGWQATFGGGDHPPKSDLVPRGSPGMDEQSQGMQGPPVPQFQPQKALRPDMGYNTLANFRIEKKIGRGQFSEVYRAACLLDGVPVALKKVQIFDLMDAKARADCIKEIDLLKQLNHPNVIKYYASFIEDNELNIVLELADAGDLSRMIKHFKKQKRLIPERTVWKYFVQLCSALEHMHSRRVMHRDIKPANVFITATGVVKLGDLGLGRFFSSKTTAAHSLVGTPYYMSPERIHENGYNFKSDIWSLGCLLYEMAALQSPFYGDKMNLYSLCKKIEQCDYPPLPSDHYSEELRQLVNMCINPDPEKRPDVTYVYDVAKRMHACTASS

[2] = target: myc 6His Nek6 (Nek6 with carboxy terminal myc/6His epitopes)
Chain of myc 6His Nek6 (Nek6 with carboxy terminal myc/6His epitopes) (chain, as listed by the source): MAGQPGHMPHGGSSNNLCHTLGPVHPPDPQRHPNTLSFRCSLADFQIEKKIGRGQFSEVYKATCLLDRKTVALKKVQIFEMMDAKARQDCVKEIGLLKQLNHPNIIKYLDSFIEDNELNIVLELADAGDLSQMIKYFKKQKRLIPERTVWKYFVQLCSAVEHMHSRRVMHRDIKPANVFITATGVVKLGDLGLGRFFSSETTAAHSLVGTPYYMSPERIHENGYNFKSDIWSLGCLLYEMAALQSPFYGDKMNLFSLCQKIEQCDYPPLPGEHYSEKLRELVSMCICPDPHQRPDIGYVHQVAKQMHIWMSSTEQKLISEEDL

Chain of GST Nek6 (chain, as listed by the source): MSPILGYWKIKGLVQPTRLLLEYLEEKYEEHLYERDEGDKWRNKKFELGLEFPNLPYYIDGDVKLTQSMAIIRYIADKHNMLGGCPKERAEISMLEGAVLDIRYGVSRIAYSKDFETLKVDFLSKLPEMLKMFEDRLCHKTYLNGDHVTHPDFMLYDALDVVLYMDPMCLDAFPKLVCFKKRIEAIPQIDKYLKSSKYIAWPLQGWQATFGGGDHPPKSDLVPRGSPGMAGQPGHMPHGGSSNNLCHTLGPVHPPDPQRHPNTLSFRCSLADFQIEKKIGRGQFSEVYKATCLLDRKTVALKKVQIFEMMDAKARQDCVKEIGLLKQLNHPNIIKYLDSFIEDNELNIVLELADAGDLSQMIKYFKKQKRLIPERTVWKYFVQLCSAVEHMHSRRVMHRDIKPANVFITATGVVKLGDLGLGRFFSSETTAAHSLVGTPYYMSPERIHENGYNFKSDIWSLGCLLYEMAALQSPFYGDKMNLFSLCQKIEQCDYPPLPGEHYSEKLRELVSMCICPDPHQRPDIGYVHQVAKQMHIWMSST
Chain of GST Nek6 (K74M/K75M) (chain, as listed by the source K74M K75M): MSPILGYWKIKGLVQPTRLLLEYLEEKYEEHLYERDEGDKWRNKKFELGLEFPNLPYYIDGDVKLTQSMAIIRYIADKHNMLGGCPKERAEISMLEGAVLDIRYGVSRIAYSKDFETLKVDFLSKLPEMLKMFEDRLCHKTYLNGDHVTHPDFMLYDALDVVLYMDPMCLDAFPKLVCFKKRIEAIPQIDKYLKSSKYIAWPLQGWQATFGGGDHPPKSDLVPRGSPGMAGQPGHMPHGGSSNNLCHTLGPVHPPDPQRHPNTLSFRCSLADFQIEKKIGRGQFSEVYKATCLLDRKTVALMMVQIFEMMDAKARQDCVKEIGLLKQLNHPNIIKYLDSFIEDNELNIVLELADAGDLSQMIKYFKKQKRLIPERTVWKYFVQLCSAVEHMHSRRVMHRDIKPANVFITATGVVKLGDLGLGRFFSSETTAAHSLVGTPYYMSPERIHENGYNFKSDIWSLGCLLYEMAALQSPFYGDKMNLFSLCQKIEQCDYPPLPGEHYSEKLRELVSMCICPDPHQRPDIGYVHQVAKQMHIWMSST

Protein	Nek6/7 kinase activity (32P into GST Cdc16 Ct) (GST Nek6)	phosphorylation of Nek6 (K74M/K75M) at Ser206 in vitro (GST Nek6 (K74M/K75M))	Nek6/7 kinase activity (32P into GST Cdc16 Ct) [1]	specific activity of coexpressed Nek6 [2]
B1	20-25 fold activation of Nek6/7 kinase activity	This modification occurred, however, with a rather low efficiency	20-25 fold activation of Nek6/7 kinase activity	
B2				a two-fold increase in the specific activity of coexpressed Nek6
